# US20140087995A1 (published 2014)
# Read-outs that look alike come from different tables or passages of the source. Numbered stars: 1 amine (or outer) side, 2 acyl side, 3 side chain; on linkers, the order of the positions; unused ones are H or OH. Bridge positions count the residues as written; N and C are the ends. Side chains are listed from the residue outwards. Ends that are not written are not given here. * marks the point of attachment. C20 diacid = O=C(O)CCCCCCCCCCCCCCCCCCC(=O)*; γGlu = O=C(O)[C@H](CCC(=O)[*:2])N[*:1]; AEEA = NCCOCCOCC(=O)O
# What was measured:
# [1] = biological target: T1, rat amylin receptor (rat calcitonin receptor + rat RAMP 3) (rat, UniProt P32214 25-516; Q9JJ73 23-147); experiment: SPA competition with 125I-rat amylin, membranes of BHK cells with rat calcitonin receptor + rat RAMP3 (Assay VI)
# T1 construct: whole, on cells; membranes of transiently transfected BHK tk'ts 13 cells (Assay VI); also called rAmylin-R; rat amylin 3(a) receptor
# T1 sequence (looked up) 1: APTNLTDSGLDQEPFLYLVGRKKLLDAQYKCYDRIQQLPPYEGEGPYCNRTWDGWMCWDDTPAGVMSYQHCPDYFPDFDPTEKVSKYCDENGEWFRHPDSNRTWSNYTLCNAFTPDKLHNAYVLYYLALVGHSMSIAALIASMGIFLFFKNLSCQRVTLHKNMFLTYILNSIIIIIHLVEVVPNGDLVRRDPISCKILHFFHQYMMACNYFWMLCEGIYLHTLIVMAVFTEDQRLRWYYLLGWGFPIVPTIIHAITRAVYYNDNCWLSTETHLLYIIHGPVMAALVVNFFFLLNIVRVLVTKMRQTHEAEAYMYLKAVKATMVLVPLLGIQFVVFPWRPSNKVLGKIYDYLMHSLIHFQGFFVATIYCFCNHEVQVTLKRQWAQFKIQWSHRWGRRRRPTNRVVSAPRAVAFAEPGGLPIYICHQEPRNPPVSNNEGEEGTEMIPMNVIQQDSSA
# T1 sequence (looked up) 2: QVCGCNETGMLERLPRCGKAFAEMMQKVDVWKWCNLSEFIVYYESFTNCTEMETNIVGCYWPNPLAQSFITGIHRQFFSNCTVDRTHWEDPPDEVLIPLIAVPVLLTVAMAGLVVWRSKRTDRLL
# rat calcitonin receptor = biological target: T2, rat calcitonin receptor (rat, UniProt P32214 25-516); experiment: SPA competition with 125I-calcitonin, membranes of BHK cells with rat calcitonin receptor (Assay VIII)
# T2 construct: whole, on cells; membranes of transiently transfected BHK tk'ts 13 cells (Assay VIII); also called rCTR; rat calcitonin (a) receptor
# T2 sequence (looked up): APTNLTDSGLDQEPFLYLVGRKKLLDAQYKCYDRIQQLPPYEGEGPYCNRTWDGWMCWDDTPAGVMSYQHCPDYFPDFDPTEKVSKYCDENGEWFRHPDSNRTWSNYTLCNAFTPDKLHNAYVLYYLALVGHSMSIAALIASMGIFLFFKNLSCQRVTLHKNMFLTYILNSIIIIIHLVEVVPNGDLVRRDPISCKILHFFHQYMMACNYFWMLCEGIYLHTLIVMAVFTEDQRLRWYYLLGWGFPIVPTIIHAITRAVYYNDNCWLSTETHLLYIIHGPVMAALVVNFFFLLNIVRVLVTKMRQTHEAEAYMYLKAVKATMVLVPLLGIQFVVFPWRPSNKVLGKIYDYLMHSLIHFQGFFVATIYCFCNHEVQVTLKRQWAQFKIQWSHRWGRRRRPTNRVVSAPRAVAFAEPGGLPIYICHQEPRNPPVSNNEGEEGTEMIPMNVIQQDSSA
# [2] = biological target: T3, human amylin 3(a) receptor (human calcitonin receptor plus RAMP-3) (human, UniProt P30988 25-474; O60896 24-148, limits assumed); experiment: SPA competition binding, displacement of 125I-rat amylin from membranes of Amylin 3(a)/CRE-luc BHK cells (Assay V)
# T3 construct: whole, on cells; Whole cells in the luciferase assay (Assay II a); also called hAmylin-R; human amylin receptor
# T3 sequence (looked up) 1: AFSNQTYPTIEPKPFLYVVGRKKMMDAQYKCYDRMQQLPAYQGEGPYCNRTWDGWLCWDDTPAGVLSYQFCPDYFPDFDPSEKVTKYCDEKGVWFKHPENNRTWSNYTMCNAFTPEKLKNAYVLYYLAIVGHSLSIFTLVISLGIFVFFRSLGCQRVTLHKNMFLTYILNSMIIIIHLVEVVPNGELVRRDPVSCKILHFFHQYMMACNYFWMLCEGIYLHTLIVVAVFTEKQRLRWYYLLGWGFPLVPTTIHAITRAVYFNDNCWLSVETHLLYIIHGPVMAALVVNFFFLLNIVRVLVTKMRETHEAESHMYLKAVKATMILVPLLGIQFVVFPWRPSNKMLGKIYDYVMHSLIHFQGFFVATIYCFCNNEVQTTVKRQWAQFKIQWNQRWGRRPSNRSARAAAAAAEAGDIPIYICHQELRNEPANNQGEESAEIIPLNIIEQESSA
# T3 sequence (looked up) 2: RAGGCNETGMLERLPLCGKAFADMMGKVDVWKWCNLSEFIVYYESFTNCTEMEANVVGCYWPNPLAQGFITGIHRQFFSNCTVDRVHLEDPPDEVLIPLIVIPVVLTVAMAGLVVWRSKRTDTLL
# How it was run: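 Membranes from BHK Amylin 3(a)/CRE-luc cells (35 ng/μL final) were mixed with SPA beads and test compounds in 50 mM Hepes pH 7.4 with 1 mM CaCl2, 5 mM MgCl₂, 0.1% OA and 0.02% Tween20. Incubation ran 120 min at 25° C with shaking; IC₅₀ came from one-site competition fitting.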
# [3] = biological target: T4, human calcitonin receptor (human, UniProt P30988 25-474); experiment: cell-based or functional assay
# T4 sequence (looked up): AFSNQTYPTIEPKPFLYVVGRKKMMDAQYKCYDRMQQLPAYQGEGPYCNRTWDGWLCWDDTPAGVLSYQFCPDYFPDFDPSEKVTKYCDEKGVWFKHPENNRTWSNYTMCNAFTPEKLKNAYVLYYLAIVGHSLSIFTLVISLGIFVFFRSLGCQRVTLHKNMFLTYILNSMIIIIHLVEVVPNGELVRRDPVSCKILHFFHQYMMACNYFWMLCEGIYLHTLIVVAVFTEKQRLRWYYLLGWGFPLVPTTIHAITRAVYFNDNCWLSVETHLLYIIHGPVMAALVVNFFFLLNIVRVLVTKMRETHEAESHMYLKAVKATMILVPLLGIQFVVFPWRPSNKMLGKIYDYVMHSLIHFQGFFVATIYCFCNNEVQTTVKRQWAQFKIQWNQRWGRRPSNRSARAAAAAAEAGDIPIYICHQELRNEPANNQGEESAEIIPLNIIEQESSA
# [4] = biological target: T3, human amylin 3(a) receptor (human …); experiment: cell-based or functional assay
# [5] = biological target: T5, human calcitonin receptor (human, UniProt P30988 25-474); experiment: cell-based or functional assay; remark: listed apart in the source
# T5 sequence (looked up): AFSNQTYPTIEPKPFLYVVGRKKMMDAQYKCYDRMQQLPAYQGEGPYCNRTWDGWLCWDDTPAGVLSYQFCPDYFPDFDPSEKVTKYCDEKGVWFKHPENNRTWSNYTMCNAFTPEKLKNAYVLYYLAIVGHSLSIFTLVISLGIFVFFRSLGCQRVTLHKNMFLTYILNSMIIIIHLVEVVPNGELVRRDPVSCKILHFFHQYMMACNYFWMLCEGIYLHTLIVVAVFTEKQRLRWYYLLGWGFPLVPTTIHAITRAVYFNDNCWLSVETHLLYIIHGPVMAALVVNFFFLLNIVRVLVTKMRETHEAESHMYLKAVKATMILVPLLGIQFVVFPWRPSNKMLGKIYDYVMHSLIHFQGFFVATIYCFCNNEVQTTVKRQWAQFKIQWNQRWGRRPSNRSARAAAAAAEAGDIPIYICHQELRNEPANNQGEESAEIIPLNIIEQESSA
Binder,IC50 [1] [nM],IC50 (rat calcitonin receptor) [nM],hCTR funct. EC50 [5] [nM],also measured
"K([AEEA-γGlu-C20 diacid])CNTATCATQRLANFLRHSSPNFGAIPSSTNVGSRTY-NH2 (disulfide 2-7 (inferred), analogue of human amylin; also called compound 38)",0.383,38,,
"K([γGlu-γGlu-C20 diacid])CNTATCATQRLADFLRHSSPNFGAIPSSTNVGSRTY-NH2 (disulfide 2-7 (inferred), analogue of human amylin; also called compound 52)",0.335,159,,
"KCNTATCATQRLAEFLRHSSPNFGAIPSSTNVGSNTY (C20 diacid-gGlu-2xOEG on the alpha amino group of the N-terminal residue (position 1); disulfide bridge Cys2-Cys7; C-terminal amide, also called compound 19)",,,,IC50 [2]: 0.556 nM; hCTR funct. EC50 [3]: 5.32 nM; Ratio hCT/hAmylin funct. [4]: 17.4; hAmylin-R funct. EC50 [4]: 0.307 nM
"KCNTATCATQRLANFLRHSSPNFGAIPSSTNVGSNTY (alpha-amino group of N-terminal Lys1 acylated with C20 diacid via gGlu-2xOEG linker; disulfide Cys2-Cys7; C-terminal amide, h-amylin derivative; disulfide bridge and C-terminal amide as told for human amylin; also called compound 24)",,,10,
"{C20 diacid-γGlu}-KCNTATCATQRLANFLRHSSPNFGAIPSSTPVGSETY-NH2 (disulfide 2-7; SMILES CC[C@H](C)[C@H](NC(=O)[C@H](C)NC(=O)CNC(=O)[C@H](Cc1ccccc1)NC(=O)[C@H](CC(N)=O)NC(=O)[C@@H]1CCCN1C(=O)[C@H](CO)NC(=O)[C@H](CO)NC(=O)[C@H](Cc1c[nH]cn1)NC(=O)[C@H](CCCNC(=N)N)NC(=O)[C@H](CC(C)C)NC(=O)[C@H](Cc1ccccc1)NC(=O)[C@H](CC(N)=O)NC(=O)[C@H](C)NC(=O)[C@H](CC(C)C)NC(=O)[C@H](CCCNC(=N)N)NC(=O)[C@H](CCC(N)=O)NC(=O)[C@@H](NC(=O)[C@H](C)NC(=O)[C@@H]1CSSC[C@H](NC(=O)[C@H](CCCCN)NC(=O)CC[C@H](NC(=O)CCCCCCCCCCCCCCCCCCC(=O)O)C(=O)O)C(=O)N[C@@H](CC(N)=O)C(=O)N[C@@H]([C@@H](C)O)C(=O)N[C@@H](C)C(=O)N[C@@H]([C@@H](C)O)C(=O)N1)[C@@H](C)O)C(=O)N1CCC[C@H]1C(=O)N[C@@H](CO)C(=O)N[C@@H](CO)C(=O)N[C@H](C(=O)N1CCC[C@H]1C(=O)N[C@H](C(=O)NCC(=O)N[C@@H](CO)C(=O)N[C@@H](CCC(=O)O)C(=O)N[C@H](C(=O)N[C@@H](Cc1ccc(O)cc1)C(N)=O)[C@@H](C)O)C(C)C)[C@@H](C)O, h-amylin derivative; disulfide bridge and C-terminal amide as told for human amylin; also called compound 28)",,,2.03,
"KCNTATCATQRLANFLRHSSPNFGAIPSSTNVGSETY (alpha-amino group of N-terminal Lys1 acylated with C20 diacid via gGlu linker; disulfide Cys2-Cys7; C-terminal amide, h-amylin derivative; disulfide bridge and C-terminal amide as told for human amylin; also called compound 23) [N^α1-[(4S)-4-carboxy-4-(19-carboxynonadecanoylamino)butanoyl]-[Arg17,Pro21,Pro27,Glu35]-h-amylin]",,,3.02,
